Laboratory results reported in paper PMC8453484.

How the values were obtained:
[1] = molecular target: HECT domain of HUWE1 (residues 3993-4374), wild type (human) (UniProt Q7Z6Z7); assay: covalent labelling with an activity-based probe (SDS-PAGE, Coomassie); 10 μM E3 and 100 μM Ub-Prg in 50 mM HEPES, 100 mM NaCl, pH 8.0 at 30 °C, quenched with SDS loading dye; only the covalent (vinyl thioether) product is seen
[2] = molecular target: HECT domain of NEDD4-1 (514-900) (UniProt P46934); assay: as above
UniProt P46934, sequence (P46934 933-1319): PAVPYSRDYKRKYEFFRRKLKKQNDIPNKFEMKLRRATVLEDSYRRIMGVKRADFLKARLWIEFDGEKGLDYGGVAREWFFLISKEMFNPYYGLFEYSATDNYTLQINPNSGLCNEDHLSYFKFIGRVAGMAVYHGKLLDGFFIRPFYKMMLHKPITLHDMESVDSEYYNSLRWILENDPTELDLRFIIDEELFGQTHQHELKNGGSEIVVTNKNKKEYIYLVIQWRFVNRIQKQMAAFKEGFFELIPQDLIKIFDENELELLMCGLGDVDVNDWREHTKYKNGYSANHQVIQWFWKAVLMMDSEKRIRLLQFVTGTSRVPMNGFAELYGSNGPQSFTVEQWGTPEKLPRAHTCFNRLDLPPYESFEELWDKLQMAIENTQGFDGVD

UniProt Q7Z6Z7, sequence (Q7Z6Z7 3993-4374): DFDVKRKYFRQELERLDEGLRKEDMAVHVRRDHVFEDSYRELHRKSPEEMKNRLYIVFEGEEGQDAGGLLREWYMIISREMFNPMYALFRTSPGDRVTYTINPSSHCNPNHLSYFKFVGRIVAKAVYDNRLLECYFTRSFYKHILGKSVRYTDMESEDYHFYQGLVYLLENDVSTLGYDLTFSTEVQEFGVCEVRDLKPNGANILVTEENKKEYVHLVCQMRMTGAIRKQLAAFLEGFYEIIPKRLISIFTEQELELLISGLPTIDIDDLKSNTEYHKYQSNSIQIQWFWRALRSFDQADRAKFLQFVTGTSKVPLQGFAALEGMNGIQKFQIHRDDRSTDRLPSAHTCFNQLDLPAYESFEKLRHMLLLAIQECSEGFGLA

Substance ubiquitin-propargylamine has a stoichiometry N [1] of 1 and a stoichiometry N [2] of 1.
